Assay: yeast display, Sf9 membrane polyspecificity reagent, FACS + sequencing; frameworks hold sequencing errors
Procedure, shortened: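 Nanobodies came from a synthetic yeast display library in Saccharomyces cerevisiae BJ5465, induced with galactose for 36–48 hours and stained for 1 hour at 4 °C with 10% biotinylated, detergent-solubilized Sf9 membrane reagent. Cells were enriched on streptavidin microbeads and then FACS-sorted, with low and high (top ~1%) gates set on anti-HA fluorescence for expression and streptavidin fluorescence for reagent binding. Each polyreactivity label reflects the gate a clone came from. Genes were amplified by colony PCR, sequenced by MiSeq 2 × 250 and filtered by CDR length.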

Row | Sequence | polyreactivity (PSR sort gate)
1 | QVQLVESGGGLVQAGGRLRLSCAASGRTFANYAMGWYRQAPGKERELVAAITGSGSTNYADSVKGRFTISRDNAKNTVYLQMNSLKPEDTAVYYCAAAYKPYRCLYYPNSIDFGYWGQGTQVTVSS | high polyreactivity
2 | QVQLVESGGGLVQAGGRLRLSCAASGRTFATNAMGWYRQAPGKERELVADISGGGSTYYADSVKGRFTISRDNAKNTVYLQMNSLKPEDTAVYYCAARDYHWFQWYDYWGQGTQVTVSS | low polyreactivity
3 | QVQLVESGGGLVQAGGRLRLSCAASGRTFFQYAMGWYRQAPGKERELVAAIRCSDSTYYADSVKGRFTISRDNAKNTVYLQMNSLKPEDTAVYYCAVRAYREFLPIVYKWWWERDHWGQGTQVTVSS | low polyreactivity
4 | QVQLVESGGGLVQAGGRLRLSCAASGRTFGSYAMGWYRQAPGKERELVAAISWSDGSTYYADSVKGRFTISRDNAKNTVYLQMNSLKPEDTAVYYCHWAKWYRYGGYRSRFDYWGQGTQVTVSS | low polyreactivity
5 | QVQLVESGGGLVQAGGRLRLSCAASGRTFGTYAKGWSRQATGKERELVAAIRSNAGSTYYADSVKGRFTISRDNAKITVYLQMNSLKPEDTAVYYCAKSYRSSRRYNYWGQGTQVNVSS | high polyreactivity
6 | QVQLVESGGGLVQAGGRLRLSCAASGRTFGYYTMGWYRQAPGKERELVATIRWSGGSTYADSVKGRFTISRDNANNTVYLQMNSLKPEDTAVYYCARRLFSWGAPFGYWGQGTQVTVSS | high polyreactivity
7 | QVQLVESGGGLVQAGGRLRLSCAASGRTFRRYTMGWYRQAPGKERELVAAISRNGGSTYYADSVKGRFTISRDNAKNTVYLQMNSLKPEDTAVYYCAALRYAYIADYDYWGQGTQVTVSS | high polyreactivity
8 | QVQLVESGGGLVQAGGRLRLSCAASGRTFTYNAMGWYRQAPGKERELFAAISNTGSTYYADSLKGRFTISRDNAKNTVYLQMNSLKPEDTAVYYCAADRAEFRQDDDPGESNYWGQGTQVTVSS | low polyreactivity
9 | QVQLVESGGGLVQAGGRLRLSCAASGRTFYYNAMGWYRQAPGKERELVAAISSSGGRTYYADSVKGRFTISRDNAKNTVYLQMNSLKPEDTAVYYCAALTNARGFDYWGQGTQVTVSS | high polyreactivity
10 | QVQLVESGGGLVQAGGRLRLSCAASGSIFFDYAMGWYRQAPGKERELVAAINSGGTTNYADSVKGRFTISRDNAKNTVYLQMKQPETGRYRGLLLQRLPGYIRWYRWYDYWGQGTQVTVSS | low polyreactivity
11 | QVQLVESGGGLVQAGGRLRLSCAASGSIFFGNVIGWYRQAPGKEREWVAAINTDGRTYYADSVKGRFTISRDNAKNTVYLQMNSLKPEDTAVYYCAKAVWWSLPAQKSYLYYYWGQGTQVTVSS | high polyreactivity
12 | QVQLVESGGGLVQAGGRLRLSCAASGSIFGGNDMGWYRQPPGKERELVAAITSSGGSTYYADSVKGRFTISRDNAKNTVYLQMYSLKPEDTAVYYCNADYYGPYRDYGYWGQGTQVTVSS | low polyreactivity
13 | QVQLVESGGGLVQAGGRLRLSCAASGSIFINNTMGWYRQAPGKERELVAAISITGGSTYYADSVKGRFTISRDNAKNTVYLQMNSLKPEDTAVYYCAADPLQLYDYNYWGQCTQVTVSS | low polyreactivity
14 | QVQLVESGGGLVQAGGRLRLSCAASGSIFNSYDMGWYRQAPGKERELVAAINSGGSTYYADSVKGRFTISRDNAKNTDYFQMNSLKPEDTAVYYCAARVVIRYPYTKGYYYWGQGTQVTVSS | high polyreactivity
15 | QVQLVESGGGLVQAGGRLRLSCAASGSIFRVYAMGWYRQAPGKERELVARISRGGRTNYADSVKGRFTISRDNAKNTVYLQMNSLKPEDTAVYYCAADVVSLESYSYQSLGYDYWGQGTQVTVSS | high polyreactivity
16 | QVQLVESGGGLVQAGGRLRLSCAASGSIFSSYAMGWYRQAPGKERELVAAITNSGVSTYYADSVKGRFTISRDNAKYTVYLQMNSLKPEVTASITALKTVVRLPTVYTPLLNWYYYWGQGTQVTVSS | low polyreactivity
17 | QVQLVESGGGLVQAGGRLRLSCAASGSILVFYARGWYRQAPGKERELVAAITSGASTNYADSVKGRFTISRDNAKNTVYLQMNSLKPEDTAVYYCAAGFQTRTPLNEFDYWGQGTQVTVSS | low polyreactivity
18 | QVQLVESGGGLVQAGGRLRLSCAASGSISQTNAMGWYRKAPGKERELVAAISGSGGSTYADSVKGRFTISRDNAKNTVYLQMNSLKPEDTAVYYCARDRYYTREWYWYRHDHWGQGTQVTVSS | low polyreactivity
19 | QVQLVESGGGLVQAGGRLRLSCAASGSNFTYYAMGWYRKAPGKEREFVAAISRRGGSTYYADSVKGRFTISRDNAKNTVYLQMNSLKPEDTAVYECNARYTGSSLYYWGQGTQLTVSS | high polyreactivity
20 | QVQLVESGGGLVQAGGRLRLSCAASGSNFYENAMVWYRQAPGKERELVADITNSGGSTYYADSVKGRFTISRDNAKNTVYLQMNSLIPEDTAVFYFATDVGYFYTVVGGYDYWGQGTQVTVSS | low polyreactivity
21 | QVQLVESGGGLVQAGGRLRLSCAASGSTFGDYAMGWYRQAPGKEREFVAAITWSGGSTNYADSVKGRFTISRDYAKNTVYLPMNSLKPEDTAVYYCAKPWYSSGFEYWGQGTQLTVSS | high polyreactivity
22 | QVQLVESGGGLVQAGGRLRLSCAASGSTFGTNDMGWYRQAPGKEREFVASIDWSGDSTNYADSVKGRFTISRDNAKNTVYLQMNSLKPEDTADYYCAARVFPQIYYTSYDYWGQGTQVTVSS | high polyreactivity

Row | Sequence | polyreactivity (PSR sort gate)
23 | QVQLVESGGGLVQAGGRLRLSCAASGSTFIGNAMGWYRQAPGKERELVAAISRTGGSTYADSVKGRFTISRDNAKNTVYLQMNSLKPEDTAVYYCAAKYYYLYYYWGQGTQVTVSS | high polyreactivity
24 | QVQLVESGGGLVQAGGRLRLSCAASGSTFILNAMGWYRQAPGKERELVAAISRSGGNTYYADSVKRRFTISRDNAKNTVYLQMNSLKPADTAVYYCAATRRSHYYYWGQGTQVTVSS | high polyreactivity
25 | QVQLVESGGGLVQAGGRLRLSCAASGSTFLNYAMGWYRQAPGKQRELVSSIDSSDGRTYYADSVKGRFTISRDNAKNTVYLQMNSLKPEDTEVYYCAKDSYAVELRPYSKLSSRADGYWGQGTQVTVSS | low polyreactivity
26 | QVQLVESGGGLVQAGGRLRLSCAASGSTFPYYAMGWYRQAPGKERELVAVITRGGSTYYADSVKGRFTISRDNAQNTVYLQMNSLKPEDTAVYYCAARYTPGFCYWGQGTQVTVSS | high polyreactivity
27 | QVQLVESGGGLVQAGGRLRLSCAASGSTFSWYVMGWYRQAPGKERELVAAITRGGGSTYYADSVKGRFTISRDNAKNTVYLQMNSLKPEDTAVYYCNADSNIPDYDYWGQGTQVTVSS | low polyreactivity
28 | QVQLVESGGGLVQAGGRLRLSCAASGSTFSYYAMGWYRQAPGKERELVAAISSRGSSTYYADSVKGRFTISRDNAKNTVYLQMNSLKPQATAVYYCAAVRYSPTKFNYWGQGTQVTVSS | high polyreactivity
29 | QVQLVESGGGLVQAGGRLRLSCAASGSTFVTNYMGRYRQAPGKERELVAAISSGTSTNYADSVKGRFTISRDNAKNTVYLQMNSLTREDTPVYYCAADSLKRYDYWGQGTQVTVSS | low polyreactivity
30 | QVQLVESGGGLVQAGGRLRLSCAASGSTLDPYAMGLYRQAPGKERELVAAITISGGTTYNADSVKGRFTISRDNAKNTVYLQMNSMKPEDTAVYYCAAEGTYVTLGYYNLDVRYDYWGQGTQVTVSS | low polyreactivity
31 | QVQLVESGGGLVQAGGRLRLSCAASGYTFPLYARGWYRQAPGKERELVADINIGGASSYYADSVKGRVTISRDNAKKTVYLQMNSLKPEDTAVYYCAKEYYDGYFPTFDYDYWGQGTQVTVSS | low polyreactivity
32 | QVQLVESGGGLVQAGGRLRLSCAATGRTFRTYVMGWYRQGPGKEREMFAAITWSAGRTYYADSVKGRFTISRDNAQNTVYLQMNSLKPEDTAVYYCATLPTYYLRSYGLDYWGQGTQVTVSS | high polyreactivity
33 | QVQLVESGGGLVQAGGRLRLSCAATGRTFWENAMGWYRQAPGKERELVAAISGDSGSTYYADSVKGRFTISRDNAKNTVYLQMNSLKPEDTAVYYCAADSDRDDSYPYYYWGQGTQVTVSS | low polyreactivity
34 | QVQLVESGGGLVQAGGRLRLSFAASGFTFRYYAMGWYRQAPGKEREFVAAIRSSGTTTSYADSVKGRFTISRDNAKNTVYLHMKSLKPEDTAVYYCAKVSSSSYVEHRYGYWGQGTQVTVSS | high polyreactivity
35 | QVQLVESGGGLVQAGGRLRLSWAASGSTFFGNAMGWYRQAPGKERELVAVITKGGGSTYYADSVKGRFTISRDNAKNTVYLQMNSLKPEDTAVYYCAKTYTSGYHRRYDYWGQGTQVTVSS | low polyreactivity
36 | QVQLVESGGGLVQAGGRLRLTCAASGRIFYRYAMGWYRQAPGKERELVASITRSGITHYADSVKGRFTISRDNAKNTVYLQMNSLKPEDTAVYYCNARRGSPAPYDYWGKGTQVTVSS | high polyreactivity
37 | QVQLVESGGGLVQAGGRLSLSCAASGSTFSPYAMGWYRQAPGKEREFVADISWPGGTTYYADSVKGRFTISRDNAKNTVYLQMNSLKPEDTAVYYCAVTYWDYTFQITYEYWGQGTQVTVSS | low polyreactivity
38 | QVQLVESGGGLVQAGGRRRLSCAASGSTLRDYVMGWYRQAPGKERELVAAITGRVDDTYYADSVKGRFTISRDNAKNTVYLQMNSLKPEDTAGYYCAADYSVTLRIGGFYWFYAFDYWGQGSQVTVSS | low polyreactivity
39 | QVQLVESGGGLVQAGGRSCAASGSTFRPYAMGWYRQAPGKEREFVAAISWRGGRTYYADSVKGRFTISRDNAKNTVYLQMNSLKPEDTAVYYCAVDPSIYRLSAYYYDYWGQGTQVTVSS | low polyreactivity
40 | QVQLVESGGGLVQAGGSFRLSCAASGRIFSPNAMGWYRQAPGKEREFVAAITWRAGTTYYADSVKGRFTISRDNAKNTVYLLMNSLKPEDTAVYYCAAGRRLGYGYWGQGTQVTVSS | high polyreactivity
41 | QVQLVESGGGLVQAGGSFRLSCAASGSIFDGYAMGWYRQAPGKERELVAAISSGGDSTYYADSVKGRFTISRDNAKNTVYLQMNSLKPEDTAVYYCNADSLVGHSYDYWGQGTQVTVSS | low polyreactivity
42 | QVQLVESGGGLVQAGGSFRLSCAASGSIFVVYAMGWYRQAPGKERELVAAITSGGSTYYADSVKGRFTISRDNAKNTVYLQMNSLKPEDTAVYYCNAKRTGPWFLHVPVYYWGQGTQVTVSS | low polyreactivity
43 | QVQLVESGGGLVQAGGSHRISCAASGSTFPGYPMGWYRQAPGKERELVAAGGSTYYADSVKGRFTISRDNAKNTVYLQINSLKPEDTAVYYCAATWGSVQKGTYYYWGQGTQVTVSS | low polyreactivity

From the nanobody polyreactivity screen of Harvey et al. (2022)
